From patent US20100129807A1 (published 2010) come the findings set out here.

The target in this experiment is T1, bacterial repressor protein LexA (UniProt P0A7C2 1-202).
T1 construct: One entry is used for LexA in all assays; also called LexA target (pEG202); LexA bait
T1 sequence: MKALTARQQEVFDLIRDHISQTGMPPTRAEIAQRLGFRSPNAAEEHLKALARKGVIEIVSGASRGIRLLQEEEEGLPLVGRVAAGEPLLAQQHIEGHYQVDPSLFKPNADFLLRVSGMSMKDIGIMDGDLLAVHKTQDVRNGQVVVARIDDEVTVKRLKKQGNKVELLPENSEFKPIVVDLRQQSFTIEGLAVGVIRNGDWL
Put plainly: SPR (BiacoreX), L2 peptide immobilised on a CM5 chip, LexA injected. On the technique in general: Surface plasmon resonance follows binding to a sensor surface in real time, without labels.

Where no end group is shown, it is not given here.

B1: synthetic linear L2 peptide with a TAT importer sequence at the N-terminal (NH2-GRKKRRQRRRPPQ-SRSWDLPGEY) (peptide)
peptide: H-GRKKRRQRRRPPQSRSWDLPGEY
notes: Immobilised on a CM5 sensor chip for SPR
For orientation: Kd means the free concentration of one partner at which half of the binding sites on the other are occupied at equilibrium, for simple one-to-one binding. Read a high Kd as weaker binding. Turning to B1, the Kd was 1700 nM. This counts as single-digit micromolar.
